Data on two proteins can be found in article PMC2907741 (Biochemistry, 2009).

Like-named read-outs stand apart in the source and are kept apart here. Bridge positions count the residues as written; N and C are the ends. Ends that are not written are not given here.

Data set [1] concerns the molecule itself. Description: thioflavin T fluorescence aggregation assay.
Data set [2] concerns the molecule itself. Description: thioflavin T fluorescence aggregation assay. The source holds these as a separate data set.

B1: 8 kDa fragment of plasma gelsolin (173-242), D187N (domain or fragment, human)
chain: ATEVPVSWESFNNGNCFILDLGNNIHQWCGSNSNRYERLKATQVSKGIRDNERSGRARVHVSEEGTEPEA
modifications: disulfide 16-29
Regarding B1, the binding result in data set [1] is “binds”.

B2: 5 kDa fragment of plasma gelsolin (173-225), D187N (domain or fragment, human)
chain: ATEVPVSWESFNNGNCFILDLGNNIHQWCGSNSNRYERLKATQVSKGIRDNER
modifications: disulfide 16-29
Regarding B2, in data set [2], the binding result is reported as “binds”.
